Data on four molecules can be found in patent publication US20190100600A1 (BIONOMICS, published 2019).

Test [1] has as its target T1, purified recombinant LGR5 ectodomain-IgG-Fc fusion (human, UniProt O75473 22-561).
T1 construct: also called human LGR5-Fc; hLGR5-Fc; not shown: IgG Fc
T1 sequence: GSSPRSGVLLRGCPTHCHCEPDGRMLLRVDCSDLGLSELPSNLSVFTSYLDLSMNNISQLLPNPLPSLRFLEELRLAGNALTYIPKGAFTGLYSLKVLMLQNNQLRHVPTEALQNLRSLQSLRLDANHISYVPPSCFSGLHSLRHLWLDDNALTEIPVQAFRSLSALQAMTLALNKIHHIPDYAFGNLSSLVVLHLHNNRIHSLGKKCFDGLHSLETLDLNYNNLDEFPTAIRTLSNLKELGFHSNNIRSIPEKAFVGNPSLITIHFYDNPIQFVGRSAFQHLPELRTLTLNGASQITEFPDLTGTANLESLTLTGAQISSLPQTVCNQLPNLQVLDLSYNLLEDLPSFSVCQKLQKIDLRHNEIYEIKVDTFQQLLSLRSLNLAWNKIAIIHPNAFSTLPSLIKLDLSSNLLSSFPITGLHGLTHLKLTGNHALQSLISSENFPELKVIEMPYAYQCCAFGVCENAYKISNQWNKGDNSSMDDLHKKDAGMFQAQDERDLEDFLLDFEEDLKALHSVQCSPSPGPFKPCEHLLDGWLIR
In words: ELISA of the ternary complex: R-spondin 3 preincubated with LGR5-Fc, co-receptor-Fc coated.

The target of test [2] is T1, purified recombinant LGR5 …. In words: ELISA of the ternary complex: R-spondin 4 preincubated with LGR5-Fc, co-receptor-Fc coated. In general terms: In an ELISA, binding on a coated surface is turned into a signal by an enzyme label.
Protocol: (§1) RNF43-Fc, ZNRF3-Fc, and LRP6-Fc were coated on a 96-well high binding plate at 4 μg/mL in 1×PBS. The plate was incubated overnight at 4° C. and blocked with PBS+1% BSA. […] Triplicate wells were used for each condition was tested in triplicate. […] 1:10,000 dilution of anti-mouse IgG HRP (JIR) was used for detection. […] Data analysis was done using GraphPad Prism 6 program.
The target is the same in test [3]. In words: ELISA of the ternary complex: R-spondin 2 preincubated with LGR5-Fc, co-receptor-Fc coated.
Protocol: as §1
For test [4] the target is unchanged. In words: ELISA of the ternary complex: R-spondin 1 preincubated with LGR5-Fc, co-receptor-Fc coated.
Protocol: as §1

B1: human R-spondin 3 (ligand, UniProt Q9BXY4 22-272, looked up)
chain: QNASRGRRQRRMHPNVSQGCQGGCATCSDYNGCLSCKPRLFFALERIGMKQIGVCLSSCPSGYYGTRYPDINKCTKCKADCDTCFNKNFCTKCKSGFYLHLGKCLDNCPEGLEANNHTMECVSIVHCEVSEWNPWSPCTKKGKTCGFKRGTETRVREIIQHPSAKGNLCPPTNETRKCTVQRKKCQKGERGKKGRERKRKKPNKGESKEAIPDSKSLESSKEIPEQRENKQQQKKRKVQDKQKSVSVSTVH
notes: mature; Bought; printed as 'full length constructs expressed in mammalian cells'; also called RSPO3; R-spo3
For the molecule B1, the binding result in test [1] is reported as “binds”.

B2: human R-spondin 4 (ligand, UniProt Q2I0M5 20-234, looked up)
chain: LNRRKKQVGTGLGGNCTGCIICSEENGCSTCQQRLFLFIRREGIRQYGKCLHDCPPGYFGIRGQEVNRCKKCGATCESCFSQDFCIRCKRQFYLYKGKCLPTCPPGTLAHQNTRECQGECELGPWGGWSPCTHNGKTCGSAWGLESRVREAGRAGHEEAATCQVLSESRKCPIQRPCPGERSPGQKKGRKDRRPRKDRKLDRRLDVRPRQPGLQP
notes: mature; Bought; printed as 'full length constructs expressed in mammalian cells'; also called RSPO4; R-spo4
On to B2, for which the binding result in test [2] is given as “binds”.

B3: human R-spondin 2 (ligand, UniProt Q6UXX9 22-243, looked up)
chain: QGNRWRRSKRASYVSNPICKGCLSCSKDNGCSRCQQKLFFFLRREGMRQYGECLHSCPSGYYGHRAPDMNRCARCRIENCDSCFSKDFCTKCKVGFYLHRGRCFDECPDGFAPLEETMECVEGCEVGHWSEWGTCSRNNRTCGFKWGLETRTRQIVKKPVKDTILCPTIAESRRCKMTMRHCPGGKRTPKAKEKRNKKKKRKLIERAQEQHSVFLATDRANQ
notes: mature; Bought; printed as 'full length constructs expressed in mammalian cells'; also called RSPO2; R-spo2
For the molecule B3, the binding result in test [3] was “binds”.

B4: human R-spondin 1 (ligand, UniProt Q2MKA7 21-263, looked up)
chain: SRGIKGKRQRRISAEGSQACAKGCELCSEVNGCLKCSPKLFILLERNDIRQVGVCLPSCPPGYFDARNPDMNKCIKCKIEHCEACFSHNFCTKCKEGLYLHKGRCYPACPEGSSAANGTMECSSPAQCEMSEWSPWGPCSKKQQLCGFRRGSEERTRRVLHAPVGDHAACSDTKETRRCTVRRVPCPEGQKRRKGGQGRRENANRNLARKESKEAGAGSRRRKGQQQQQQQGTVGPLTSAGPA
notes: mature; Bought; printed as 'full length constructs expressed in mammalian cells'; also called RSPO1; R-spo1
In the case of B4, the binding result in test [4] is “binds”.
